Data set [1] has as its target T1, Hfq-CTR peptide (Escherichia coli, UniProt P0A6X3).
T1 chain: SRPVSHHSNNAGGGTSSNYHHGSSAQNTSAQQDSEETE
Nature of the data set: EMSA?; method not stated for dG7; EMSA: quadruplex prepared in water (95 C 5 min, slow cooling), 20 min at room temperature; native 4-20% polyacrylamide gel in TAE pH 8.0 (40 mM Tris-acetate, 1). Particulars: parallel G-quadruplex. On the technique in general: In EMSA bound probe runs differently from free probe, usually more slowly.

The target of data set [2] is T1, Hfq-CTR peptide. Nature of the data set: EMSA; quadruplex annealed in water without salt; EMSA: quadruplex prepared in water (95 C 5 min, slow cooling), 20 min at room temperature; native 4-20% polyacrylamide gel in TAE pH 8.0 (40 mM Tris-acetate, 1). Particulars: parallel G-quadruplex.

By Kd is commonly meant a measure of binding affinity in units of concentration.

On to GGGGGGG (structured_DNA) [dG7], for which the affinity with Hfq-CTR peptide [1], expressed as Kd, was 981 ± 96 nM.

As to GGGTGGGTGGGTGGGT (structured_DNA) [d(G3T)4], the dissociation constant Kd with Hfq-CTR peptide [2] is 1060 ± 74 nM.

The values are drawn from paper PMC7603069, “Crucial Role of the C-Terminal Domain of Hfq Protein in Genomic Instability”.
